Where a chain is given by its changes, count along the chain named.
What was measured:
[1] = molecular target: T1, Timeless (optimised construct);Tipin (Homo sapiens;Homo sapiens, UniProt Q9UNS1;Q9BVW5 1-238+=GSTGST+331-1208;1-301, internal_change|); experiment: EMSA; 5 uM protein, 5 uM DNA; FA at 25 C, 10 nM DNA: DBD in 25 mM HEPES-NaOH pH 7.2, 150 mM KCl, 0.5 mM EDTA, 0.005% Tween-20; Timeless-Tipin in 25 mM HEPES pH 7.1, 150 mM KCl, 1 mM DTT, 5 mM MgCl2; EMSA in 25 mM HEPES pH 7.1, 150 mM KCl, 5 mM MgCl2, 1 mM DTT on ice, 1% agarose at 4 C; conditions: protein: recombinant;recombinant, tags: His14-SUMO removed;His6-GST removed, copies: 1;1, label: 5' 6FAM
Timeless DBD = Timeless DBD (Homo sapiens, UniProt Q9UNS1 816-954); experiment: fluorescence anisotropy; 150 mM KCl; FA at 25 C, 10 nM DNA: DBD in 25 mM HEPES-NaOH pH 7.2, 150 mM KCl, 0.5 mM EDTA, 0.005% Tween-20; Timeless-Tipin in 25 mM HEPES pH 7.1, 150 mM KCl, 1 mM DTT, 5 mM MgCl2; EMSA in 25 mM HEPES pH 7.1, 150 mM KCl, 5 mM MgCl2, 1 mM DTT on ice, 1% agarose at 4 C; conditions: protein: recombinant, tags: His14-SUMO removed
[2] = molecular target: T1, Timeless (optimised construct);Tipin; experiment: fluorescence anisotropy; 150 mM KCl, 5 mM MgCl2; FA at 25 C, 10 nM DNA: DBD in 25 mM HEPES-NaOH pH 7.2, 150 mM KCl, 0.5 mM EDTA, 0.005% Tween-20; Timeless-Tipin in 25 mM HEPES pH 7.1, 150 mM KCl, 1 mM DTT, 5 mM MgCl2; EMSA in 25 mM HEPES pH 7.1, 150 mM KCl, 5 mM MgCl2, 1 mM DTT on ice, 1% agarose at 4 C; conditions: protein: recombinant;recombinant, tags: His14-SUMO removed;His6-GST removed, copies: 1;1, label: 5' 6FAM
[3] = G4 intramolecular with ssDNA flanks

T1 sequence (Q9UNS1 other isoform, or with tags, fused parts or gaps |, chain 1 of 2): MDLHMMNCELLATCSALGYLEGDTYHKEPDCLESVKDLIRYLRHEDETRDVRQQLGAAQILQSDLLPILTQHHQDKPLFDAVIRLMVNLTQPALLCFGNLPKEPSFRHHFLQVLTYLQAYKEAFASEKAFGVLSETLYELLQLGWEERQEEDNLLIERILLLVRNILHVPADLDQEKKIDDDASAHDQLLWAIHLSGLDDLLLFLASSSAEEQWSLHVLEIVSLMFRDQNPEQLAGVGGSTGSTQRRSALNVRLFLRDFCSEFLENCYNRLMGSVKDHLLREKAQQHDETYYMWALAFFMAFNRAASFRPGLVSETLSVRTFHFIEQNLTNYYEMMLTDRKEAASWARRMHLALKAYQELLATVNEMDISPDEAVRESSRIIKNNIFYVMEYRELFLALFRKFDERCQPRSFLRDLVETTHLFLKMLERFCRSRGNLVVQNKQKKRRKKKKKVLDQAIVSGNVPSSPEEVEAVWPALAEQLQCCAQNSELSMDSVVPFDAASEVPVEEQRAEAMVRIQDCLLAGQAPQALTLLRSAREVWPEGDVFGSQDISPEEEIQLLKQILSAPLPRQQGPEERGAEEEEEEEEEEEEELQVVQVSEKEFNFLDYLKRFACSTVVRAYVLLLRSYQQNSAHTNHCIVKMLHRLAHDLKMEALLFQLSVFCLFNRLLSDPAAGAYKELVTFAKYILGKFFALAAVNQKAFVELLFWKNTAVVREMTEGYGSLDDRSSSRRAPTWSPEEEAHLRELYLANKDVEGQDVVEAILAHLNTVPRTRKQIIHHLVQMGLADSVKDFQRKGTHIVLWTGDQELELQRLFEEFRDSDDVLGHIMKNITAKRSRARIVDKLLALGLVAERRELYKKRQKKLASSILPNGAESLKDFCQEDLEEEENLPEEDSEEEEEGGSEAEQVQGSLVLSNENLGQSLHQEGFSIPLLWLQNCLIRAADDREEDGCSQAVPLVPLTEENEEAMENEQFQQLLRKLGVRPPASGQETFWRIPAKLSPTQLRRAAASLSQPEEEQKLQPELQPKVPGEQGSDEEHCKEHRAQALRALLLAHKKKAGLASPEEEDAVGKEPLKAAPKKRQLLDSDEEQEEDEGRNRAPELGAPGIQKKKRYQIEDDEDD
T1 sequence (Q9BVW5 whole entry, change not shown, chain 2 of 2): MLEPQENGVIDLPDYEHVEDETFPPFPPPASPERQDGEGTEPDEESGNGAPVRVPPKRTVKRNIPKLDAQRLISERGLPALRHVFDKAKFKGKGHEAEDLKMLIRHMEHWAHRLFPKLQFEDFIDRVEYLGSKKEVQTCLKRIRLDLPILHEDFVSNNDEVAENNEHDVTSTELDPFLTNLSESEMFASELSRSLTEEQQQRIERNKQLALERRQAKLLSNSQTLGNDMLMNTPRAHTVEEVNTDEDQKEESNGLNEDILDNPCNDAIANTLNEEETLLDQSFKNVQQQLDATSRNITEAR
Sequence of Timeless DBD (Q9UNS1 816-954): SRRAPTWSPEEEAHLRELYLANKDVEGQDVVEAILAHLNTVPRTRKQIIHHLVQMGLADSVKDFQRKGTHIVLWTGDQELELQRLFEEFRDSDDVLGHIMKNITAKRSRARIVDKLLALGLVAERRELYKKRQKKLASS

B1: ssHP (structured_DNA)
DNA: ACGAGAGCTAGCACATTTTGAGGCTGCGTTTCGCAGCCTCAATTTCACGTAGAACCTGT
**Q.** Does B1 bind ([1]; hairpin with ssDNA flanks)?
**A.** no binding

B2: G4 DNA (MYC, 1XAV) Cy3 (structured_DNA)
DNA: TGAGGGTGGGTAGGGTGGGTAA
**Q.** B2 was tested. Which Kd (Timeless DBD; label: 3' Cy3, G4 intramolecular) did it give?
**A.** ~120 nM

B3: BU1 +3.5 (structured_DNA)
DNA: AGCTAGCACATTTTAAGGGCTGGGTGGGTGCTGTCAAGGGCTGGGTTTTCACGTAGAA
**Q.** Does B3 bind [1, 3]?
**A.** binds

B4: dsDNA (Fig 2D) (dsDNA)
DNA 1: TGAGAGTGAGTAGAGTGAGTAA
DNA 2: TTACTCACTCTACTCACTCTCA
**Q.** For B4, which Kd (Timeless DBD; blunt) is on record?
**A.** ~800 nM

B5: ds20 (dsDNA)
DNA 1: ATAAGAGTGGTTAGAGTGTA
DNA 2: TACACTCTAACCACTCTTAT
**Q.** Does B5 bind ([2]; blunt)?
**A.** no binding

B6: ssDNA (Fig 2D) (ssDNA)
DNA: TGAGAGTGAGTAGAGTGAGTAA
**Q.** Does B6 bind (Timeless DBD; single strand)?
**A.** binds

B7: 1XAV (structured_DNA)
DNA: TGAGGGTGGGTAGGGTGGGTAA
**Q.** Does B7 bind ([2]; G4 intramolecular)?
**A.** binds

B8: ssG4 (structured_DNA)
DNA: ACGAGAGCTAGCACATTTTGAGGGTGGGTAGGGTGGGTAATTTTCACGTAGAACCTGT
**Q.** B8 was tested. Which Kd [2, 3] did it give?
**A.** 600 ± 30 nM

B9: ss (ssDNA)
DNA: B8 DNA with G23T, G26C, G27A, G32C, G35C, G36T
**Q.** Does B9 bind ([1]; single strand)?
**A.** no binding

B10: ss20 (ssDNA)
DNA: ATAAGAGTGGTTAGAGTGTA
**Q.** Does B10 bind ([2]; single strand)?
**A.** no binding

— paper PMC7506991, “Timeless couples G‐quadruplex detection with processing by DDX11 helicase during DNA replication”
